From PMC11957191

Experiments:
[1] = target: myristoylated human Arf1 (myrArf1), GTP-bound form at a membrane surface (human) (UniProt P84077); experiment: not stated; binding test of the K391A mutant shown in Fig. SI5; method not given
[2] = target: myristoylated human Arf1 (myrArf1), GTP-bound form at a membrane surface (human) (UniProt P84077)
[3] = target: myrArf1 with Glu54 mutated to Ala (human) (UniProt P84077)
[4] = target: myristoylated human Arf1 (myrArf1), GTP-bound form at a membrane surface (human) (UniProt P84077); remark: listed apart in the source

myristoylated human Arf1 (myrArf1), GTP-bound form at a membrane surface (human), sequence (P84077 whole entry): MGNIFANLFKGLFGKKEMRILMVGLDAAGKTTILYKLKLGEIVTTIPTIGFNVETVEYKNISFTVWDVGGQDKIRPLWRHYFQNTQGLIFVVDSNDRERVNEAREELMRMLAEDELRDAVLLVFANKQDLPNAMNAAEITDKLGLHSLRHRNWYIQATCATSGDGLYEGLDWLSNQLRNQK
ASAP1 PZA with His405 mutated to Glu, sequence (Q9QWY8 other isoform, or with tags, fused parts or gaps, change not shown): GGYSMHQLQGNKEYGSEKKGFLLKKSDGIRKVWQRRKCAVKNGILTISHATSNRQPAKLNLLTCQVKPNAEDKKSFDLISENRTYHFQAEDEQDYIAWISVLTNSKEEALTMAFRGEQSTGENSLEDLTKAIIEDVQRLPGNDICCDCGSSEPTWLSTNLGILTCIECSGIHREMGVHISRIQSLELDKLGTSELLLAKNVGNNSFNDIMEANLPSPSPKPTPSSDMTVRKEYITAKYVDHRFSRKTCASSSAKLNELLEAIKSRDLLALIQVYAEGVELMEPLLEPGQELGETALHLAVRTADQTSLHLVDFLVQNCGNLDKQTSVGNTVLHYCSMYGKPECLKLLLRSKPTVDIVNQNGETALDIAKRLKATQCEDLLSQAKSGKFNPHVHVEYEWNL
ΔN14PZA, ASAP1 PZA without residues 325–338, sequence (Q9QWY8 339-724, stated change not applied): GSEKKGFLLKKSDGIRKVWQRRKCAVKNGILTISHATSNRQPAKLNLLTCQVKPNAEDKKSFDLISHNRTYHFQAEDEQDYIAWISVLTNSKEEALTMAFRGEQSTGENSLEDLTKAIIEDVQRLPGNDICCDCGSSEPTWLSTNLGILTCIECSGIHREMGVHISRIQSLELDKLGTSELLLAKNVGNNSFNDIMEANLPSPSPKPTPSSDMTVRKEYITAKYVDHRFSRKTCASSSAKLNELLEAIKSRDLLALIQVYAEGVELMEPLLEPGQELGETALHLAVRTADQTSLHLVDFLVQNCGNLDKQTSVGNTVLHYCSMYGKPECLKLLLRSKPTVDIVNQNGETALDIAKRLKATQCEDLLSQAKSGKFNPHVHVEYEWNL
ASAP1 PZA with Phe438 mutated to Ala, sequence (Q9QWY8 other isoform, or with tags, fused parts or gaps, change not shown): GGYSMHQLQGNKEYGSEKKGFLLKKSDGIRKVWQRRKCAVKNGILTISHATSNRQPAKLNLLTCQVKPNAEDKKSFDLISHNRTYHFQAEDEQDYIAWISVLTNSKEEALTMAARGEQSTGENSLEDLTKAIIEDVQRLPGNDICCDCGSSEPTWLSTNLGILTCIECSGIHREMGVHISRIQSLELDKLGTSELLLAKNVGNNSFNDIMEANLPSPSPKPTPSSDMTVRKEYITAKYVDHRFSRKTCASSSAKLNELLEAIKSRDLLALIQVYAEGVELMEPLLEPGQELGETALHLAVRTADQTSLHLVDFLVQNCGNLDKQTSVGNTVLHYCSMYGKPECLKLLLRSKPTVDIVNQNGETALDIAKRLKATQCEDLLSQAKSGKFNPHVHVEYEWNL
myrArf1 with Glu54 mutated to Ala (human), sequence (P84077 other isoform, or with tags, fused parts or gaps, change not shown): as the sequence (P84077 whole entry) above, with E54A counted along it
wt PZA, [325–724]ASAP1 (PH domain, Arf GAP zinc-binding domain and ankyrin repeats), sequence (Q9QWY8 325-724): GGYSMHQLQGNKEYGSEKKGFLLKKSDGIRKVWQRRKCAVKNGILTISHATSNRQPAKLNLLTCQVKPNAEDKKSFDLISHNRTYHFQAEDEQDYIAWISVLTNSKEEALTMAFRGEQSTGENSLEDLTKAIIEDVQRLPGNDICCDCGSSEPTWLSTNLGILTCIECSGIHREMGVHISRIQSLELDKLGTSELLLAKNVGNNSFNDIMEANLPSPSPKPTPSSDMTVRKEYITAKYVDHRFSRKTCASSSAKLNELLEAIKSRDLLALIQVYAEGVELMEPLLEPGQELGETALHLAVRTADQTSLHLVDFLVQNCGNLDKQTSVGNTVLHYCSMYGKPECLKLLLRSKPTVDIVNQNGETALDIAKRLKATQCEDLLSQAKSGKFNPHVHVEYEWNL
ASAP1 PZA with Lys391 mutated to Ala, sequence (Q9QWY8 other isoform, or with tags, fused parts or gaps, change not shown): as the sequence (Q9QWY8 325-724) above, with K67A counted along it

Substance | ArfGAP activity (C50 of PZA for 50% GTP hydrolysis in 3 min), fold reduction against wild type [2] [fold] | further results
ASAP1 PH domain with Lys391 mutated to Ala (from UniProt Q9QWY8 325-451) (domain or fragment) | – | fold reduction of binding against wild type [1]: 2 fold
ASAP1 PZA with His405 mutated to Glu (from UniProt Q9QWY8 325-724) (domain or fragment) | 5 | –
wt PZA, [325–724]ASAP1 (PH domain, Arf GAP zinc-binding domain and ankyrin repeats) (from UniProt Q9QWY8 325-724) (domain or fragment) | – | ArfGAP activity (C50 of PZA for 50% GTP hydrolysis in 3 min), fold reduction against wild type [3]: 70 fold
ΔN14PZA, ASAP1 PZA without residues 325–338 (from UniProt Q9QWY8 339-724) (domain or fragment) | – | GAP activity on myrArf1·GTP relative to wt PZA (fold of wt PZA) [4]: < 0.01

Second part, led by results:

ArfGAP activity (C50 of PZA for 50% GTP hydrolysis in 3 min), fold reduction against wild type [2] [fold] | Substance | further results
100 | ASAP1 PZA with Lys391 mutated to Ala (from UniProt Q9QWY8 325-724) (domain or fragment) | –
15 | ASAP1 PZA with Phe438 mutated to Ala (from UniProt Q9QWY8 325-724) (domain or fragment) | –
